Test results as given in publication PMC4674748, “Identification of the Replication Origins from Cyanothece ATCC 51142 and Their Interactions with the DnaA Protein: From In Silico to In Vitro Studies”.

Target: T1, His6-DnaA (IV) (Cyanothece ATCC 51142, UniProt B1X0X6 331-455)
T1 sequence: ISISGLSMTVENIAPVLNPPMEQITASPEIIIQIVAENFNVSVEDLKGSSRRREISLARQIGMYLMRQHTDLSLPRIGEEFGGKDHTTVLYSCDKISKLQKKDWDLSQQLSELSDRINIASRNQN
Test: EMSA; 5-100 nM protein; 3 mM ATP, poly(dI-dC); better affinity than Lbox23; EMSA: 20 mM Hepes/KOH pH 8.0, 5 mM Mg acetate, 1 mM Na2EDTA, 4 mM DTT, 0.2% Triton X-100, 3 mM ATP, 5 mg/mL BSA, poly(dI-dC), 37 C 30 min; footprint: 25 C 30 min, 400 ng probe in 40 uL
Conditions: protein: recombinant; tags: N-terminal His6 (pET-28a, BamHI/HindIII); blunt

B1: Cbox23 (2Box2B, 35 nt) (dsDNA)
DNA 1: CCTTTAAATTTTTCCACAGTTTTTCCACAGCATTA
DNA 2: TAATGCTGTGGAAAAACTGTGGAAAAATTTAAAGG
Q: Does B1 bind?
A: Result: binds
